The source of these data is US20230243836A1.

Test [1] addresses VISTA (V-Domain Ig Suppressor of T Cell Activation) expressed on human cells (human) (UniProt Q9H7M9). Put plainly: cell-based or functional assay.
The target in test [2] is T1, P-selectin glycoprotein ligand 1 (PSGL-1) expressed on human cells (human) (UniProt Q14242).
T1 sequence: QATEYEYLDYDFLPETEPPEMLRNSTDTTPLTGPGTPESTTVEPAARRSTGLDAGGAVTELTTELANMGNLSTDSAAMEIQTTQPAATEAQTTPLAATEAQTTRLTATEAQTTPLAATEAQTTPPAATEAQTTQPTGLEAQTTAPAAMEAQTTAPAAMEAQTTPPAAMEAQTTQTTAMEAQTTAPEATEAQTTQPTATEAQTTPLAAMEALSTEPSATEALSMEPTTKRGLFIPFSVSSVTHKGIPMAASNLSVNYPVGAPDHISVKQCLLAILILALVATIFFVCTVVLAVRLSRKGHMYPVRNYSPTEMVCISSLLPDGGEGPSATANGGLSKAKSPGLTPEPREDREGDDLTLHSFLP
The test can be described thus: CAPTIREC (TRICEPS) ligand-receptor capture on naive human T cells, LC-MS/MS; enrichment against the anti-CD28 antibody control.

Sequence of VISTA-Fc fusion protein (chain): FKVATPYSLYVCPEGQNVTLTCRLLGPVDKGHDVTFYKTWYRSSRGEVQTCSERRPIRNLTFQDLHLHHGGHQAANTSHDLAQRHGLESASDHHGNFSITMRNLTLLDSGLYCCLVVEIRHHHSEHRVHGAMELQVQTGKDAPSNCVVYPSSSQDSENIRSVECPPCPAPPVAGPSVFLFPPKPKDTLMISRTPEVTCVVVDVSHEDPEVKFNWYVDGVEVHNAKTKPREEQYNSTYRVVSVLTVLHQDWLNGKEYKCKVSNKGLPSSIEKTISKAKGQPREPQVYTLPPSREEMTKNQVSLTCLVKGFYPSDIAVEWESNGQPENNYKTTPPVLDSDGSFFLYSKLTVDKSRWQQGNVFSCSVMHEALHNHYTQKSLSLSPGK
Sequence of VISTA (V-Domain Ig Suppressor of T Cell Activation) expressed on human cells (human) (Q9H7M9 33-311): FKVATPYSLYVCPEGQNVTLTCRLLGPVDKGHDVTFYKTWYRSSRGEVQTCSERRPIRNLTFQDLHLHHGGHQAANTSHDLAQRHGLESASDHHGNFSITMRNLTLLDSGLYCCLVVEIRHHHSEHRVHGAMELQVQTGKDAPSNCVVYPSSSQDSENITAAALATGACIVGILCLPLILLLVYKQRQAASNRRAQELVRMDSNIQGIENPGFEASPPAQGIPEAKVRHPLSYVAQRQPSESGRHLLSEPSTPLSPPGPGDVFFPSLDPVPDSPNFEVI

As to “PSGL-1-Fc fusion protein (Example VIII) (from UniProt Q14242 18-320)”, the fold decrease in IL-2 release from CD4+ T cells (72 h) in test [1] was 2 fold.
Substance VISTA-Fc fusion protein showed a Log2 FC (log2 fold change) in test [2] of 2.33.
